Assay results as given in publication doi:10.1101/2022.12.06.518574 (bioRxiv, 2022).

Columns and labels:
AUC [1] = molecular target: the molecule itself; assay: AUC
AUC [2] = molecular target: the molecule itself; assay: AUC; remark: listed apart in the source

B1: Sen[K252,255A] (enzyme, UniProt Q5XD01 1-435, looked up)
chain: MSIITDVYAREVLDSRGNPTLEVEVYTESGAFGRGMVPSGASTGEHEAVELRDGDKSRYLGLGTQKAVDNVNNIIAKAIIGYDVRDQQAIDRAMIALDGTPNKGKLGANAILGVSIAVARAAADYLEVPLYTYLGGFNTKVLPTPMMNIINGGSHSDAPIAFQEFMIMPVGAPTFKEGLRWGAEVFHALKKILKERGLVTAVGDEGGFAPKFEGTEDGVETILKAIEAAGYEAGENGIMIGFDCASSEFYDAERAVYDYTKFEGEGAAVRTSAEQVDYLEELVNKYPIITIEDGMDENDWDGWKVLTERLGKRVQLVGDDFFVTNTEYLARGIKENAANSILIKVNQIGTLTETFEAIEMAKEAGYTAVVSHRSGETEDSTIADIAVATNAGQIKTGSLSRTDRIAKYNQLLRIEDQLGEVAQYKGIKSFYNLKK
**Q.** Which results are given for B1?
**A.** stoichiometry N (AUC [1]): 8; percent as octamer (AUC [2]): ≥ 95%

B2: Sen[K434,435A] (enzyme, UniProt Q5XD01 1-435, looked up)
chain: MSIITDVYAREVLDSRGNPTLEVEVYTESGAFGRGMVPSGASTGEHEAVELRDGDKSRYLGLGTQKAVDNVNNIIAKAIIGYDVRDQQAIDRAMIALDGTPNKGKLGANAILGVSIAVARAAADYLEVPLYTYLGGFNTKVLPTPMMNIINGGSHSDAPIAFQEFMIMPVGAPTFKEGLRWGAEVFHALKKILKERGLVTAVGDEGGFAPKFEGTEDGVETILKAIEAAGYEAGENGIMIGFDCASSEFYDKERKVYDYTKFEGEGAAVRTSAEQVDYLEELVNKYPIITIEDGMDENDWDGWKVLTERLGKRVQLVGDDFFVTNTEYLARGIKENAANSILIKVNQIGTLTETFEAIEMAKEAGYTAVVSHRSGETEDSTIADIAVATNAGQIKTGSLSRTDRIAKYNQLLRIEDQLGEVAQYKGIKSFYNLAA
**Q.** For B2, which “stoichiometry N” value (AUC [1]) is on record?
**A.** Its value is 8.

**Q.** What about the percent as octamer (AUC [2]) of the same protein?
**A.** Its percent as octamer is ≥ 95%.

B3: Sen[K252,255,434,435A] (enzyme, UniProt Q5XD01 1-435, looked up)
chain: MSIITDVYAREVLDSRGNPTLEVEVYTESGAFGRGMVPSGASTGEHEAVELRDGDKSRYLGLGTQKAVDNVNNIIAKAIIGYDVRDQQAIDRAMIALDGTPNKGKLGANAILGVSIAVARAAADYLEVPLYTYLGGFNTKVLPTPMMNIINGGSHSDAPIAFQEFMIMPVGAPTFKEGLRWGAEVFHALKKILKERGLVTAVGDEGGFAPKFEGTEDGVETILKAIEAAGYEAGENGIMIGFDCASSEFYDAERAVYDYTKFEGEGAAVRTSAEQVDYLEELVNKYPIITIEDGMDENDWDGWKVLTERLGKRVQLVGDDFFVTNTEYLARGIKENAANSILIKVNQIGTLTETFEAIEMAKEAGYTAVVSHRSGETEDSTIADIAVATNAGQIKTGSLSRTDRIAKYNQLLRIEDQLGEVAQYKGIKSFYNLAA
**Q.** For B3, which “stoichiometry N” value (AUC [1]) is on record?
**A.** The value was 8.

**Q.** What about the percent as octamer (AUC [2]) of the same protein?
**A.** The percent as octamer was ≥ 95%.
